This note sets out measurements from patent US20250011433A1 (GLIKNIK, published 2025).

Where two headings read alike, the source gives them in different places.

The target in assay [1] is T1, FcγRIIb (UniProt P31994 46-217, limits assumed).
T1 sequence (looked up): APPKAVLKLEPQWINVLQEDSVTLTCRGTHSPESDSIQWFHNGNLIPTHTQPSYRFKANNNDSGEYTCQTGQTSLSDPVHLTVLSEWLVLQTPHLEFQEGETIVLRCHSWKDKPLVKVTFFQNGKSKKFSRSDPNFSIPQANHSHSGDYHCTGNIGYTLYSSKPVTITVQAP
Kind of assay: BLI (Octet). As to the method: (§1) Binding of complement-preferential stradomers or parent stradomer G045c to FcγRI, FcγRIIb, FcγRIIIa, FcγRIIa, or FcRn was assessed. RU values of dissociation were measured by biolayer interferometry using a ForteBio Octet instrument. His-tagged receptor proteins were bound to the sensor tip in 1× kinetic analysis buffer from ForteBio after which the on rate of the receptor/protein was measured by transferring the sensor tip to a 1× kinetics buffer containing the purified stradomer of choice. Off rate was measured by transferring the sensor tip to a 1× kinetics buffer, and RU value was calculated from the measured maximum binding using the ForteBio software. Biolayer interferometry detects the binding between a ligand immobilized on the biosensor tip surface and an analyte in solution. When binding occurs it produces an increase in optical thickness at the biosensor tip, which results in a wavelength shift (detected as a response unit of “RU”). The maximum binding level (RU max) is the maximum possible amount of sample binding at equilibrium that saturates the amount of ligand on the sensor surface. The RU 300 is the residual sample binding after 300 seconds of dissociation and is useful to characterize the rate of dissociation of the test article from the test ligand.

For assay [2], the target named is T2, FcγRI (UniProt P12314 16-288).
T2 construct: also called CD64
Kind of assay: BLI (Octet). The method, then: as §1
(In BLI a coated tip is dipped into the sample, and binding shifts an interference pattern.)

Assay [3] deals with T3, C1q (UniProt P02745 23-245; P02746 28-253; P02747 29-245).
T3 construct: bought C1q coated on ELISA plates at 1 µg/ml; also called complement C1q; complement factor C1q
The experiment in a line: ELISA on coated C1q. As to the method: (§2) For C1q binding, 96 well plates were coated with C1q (Sigma Cat #: C1740 1 μg/ml) overnight in PBS. After coating, plates were washed 3 times with standard wash buffer (iX PBS+0.05% Tween 20) and blocked with blocking buffer (1% BSA+1× PBS+0.05% Tween 20) for 2 hours at RT. Following blocking, plates were incubated with compound diluted in blocking buffer 100 μL/well and washed 3 times with standard washing buffer. C1q-bound compound was detected by incubation with 1:5000 biotinylated mouse anti-human IgG1(Cat #555869, BD Biosciences) and Streptavidin-HRP (Cat #: 7100-05 Southern Biotech) (100 μl/well) for 1 hour at room temperature followed by washing 3 times with washing buffer, after which color was developed using the standard TMB method according to manufacturer's protocol for 15 minutes. Absorbance was read at 450 nm.
(In general: ELISA stands for enzyme-linked immunosorbent assay.)

The target of assay [4] is T1, FcγRIIb. The experiment in a line: BLI (Octet). The source holds these as a separate data set.
The target in assay [5] is T2, FcγRI. The experiment in a line: BLI (Octet). The source holds these as a separate data set.
Assay [6] deals with T3, C1q. Kind of assay: ELISA on coated C1q. As to the method: as §2
For each stradomer in Tables 5-9, the level of canonical FcγR binding, complement C1q binding, and CDC inhibition were determined according to the methods described in Example 1.
This is another data set of the same source.

For another assay, the target named is FcγRIIIa (UniProt P08637 17-208). Kind of assay: BLI (Octet); legend: - indicates no binding. As to the method:
as §1

T2 sequence (P12314 16-288 limits assumed): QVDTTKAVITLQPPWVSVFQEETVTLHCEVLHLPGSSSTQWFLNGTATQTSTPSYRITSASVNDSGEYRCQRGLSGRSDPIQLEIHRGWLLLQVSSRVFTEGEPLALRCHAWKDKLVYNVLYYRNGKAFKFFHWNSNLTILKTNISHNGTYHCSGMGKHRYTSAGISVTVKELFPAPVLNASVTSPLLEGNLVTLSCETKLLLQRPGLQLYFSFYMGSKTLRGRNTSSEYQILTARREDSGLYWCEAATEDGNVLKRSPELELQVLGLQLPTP
T3 sequence (P02745 23-245 limits assumed, chain 1 of 3): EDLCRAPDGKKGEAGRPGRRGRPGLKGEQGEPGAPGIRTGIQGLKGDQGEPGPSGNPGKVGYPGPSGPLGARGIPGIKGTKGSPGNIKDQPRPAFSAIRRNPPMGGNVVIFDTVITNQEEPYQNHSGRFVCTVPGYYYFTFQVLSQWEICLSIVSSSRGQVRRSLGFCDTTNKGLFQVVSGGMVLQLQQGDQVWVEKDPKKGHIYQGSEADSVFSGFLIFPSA
T3 sequence (P02746 28-253 limits assumed, chain 2 of 3): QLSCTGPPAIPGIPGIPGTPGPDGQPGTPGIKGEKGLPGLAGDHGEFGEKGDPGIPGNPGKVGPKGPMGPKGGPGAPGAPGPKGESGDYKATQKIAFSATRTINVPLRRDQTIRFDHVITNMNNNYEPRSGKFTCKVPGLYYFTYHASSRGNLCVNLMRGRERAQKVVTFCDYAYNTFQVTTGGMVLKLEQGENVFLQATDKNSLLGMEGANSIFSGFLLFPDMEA
T3 sequence (P02747 29-245 limits assumed, chain 3 of 3): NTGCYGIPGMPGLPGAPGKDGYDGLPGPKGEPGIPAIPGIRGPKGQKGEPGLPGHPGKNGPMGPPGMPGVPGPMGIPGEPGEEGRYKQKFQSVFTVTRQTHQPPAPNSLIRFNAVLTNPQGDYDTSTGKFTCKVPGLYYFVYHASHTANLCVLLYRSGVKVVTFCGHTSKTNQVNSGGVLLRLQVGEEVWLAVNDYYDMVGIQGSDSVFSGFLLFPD
FcγRIIIa, sequence (P08637 17-208 limits assumed): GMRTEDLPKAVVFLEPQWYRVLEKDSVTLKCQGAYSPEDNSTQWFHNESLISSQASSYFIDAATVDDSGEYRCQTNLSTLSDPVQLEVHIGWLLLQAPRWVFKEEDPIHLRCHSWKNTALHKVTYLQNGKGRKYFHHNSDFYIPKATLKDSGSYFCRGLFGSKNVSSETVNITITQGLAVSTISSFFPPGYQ

B1: G1049 (Fc fusion)
chain: ERKCCVECPPCPEPKSCDKTHTCPPCPAPELLGGPSVFLFPPKPKDTLMISRTPEVTCVVVDVEFEDPEVKFNWYVDGVEVHNAKTKPREEQYNSTYRVVSVLTVLHQDWLNGKEYKCKVTNKAFPAPIEKTISKAKGQPREPQVYTLPPSRDELTKNQVSLTCLVKGFYPSDIAVEWESNGQPENNYKTTPPVLDSDGSFFLYSKLTVDKSRWQQGNVFSCSVMHEALHNHYTQKSLSLSPGK
notes: G019 background, S267E/H268F/S324T/L328F; leader 1-20 cleaved
For B1, the binding result with FcγRIIb [1], with FcγRI [2] and with C1q [3] was “binds” in each case.

B2: G1109 (Fc fusion)
chain: EPKSCDKTHTCPPCPAPPLLGGPSVFLFPPKPKDTLMISRTPEVTCVVVDVEFEDPEVKFNWYVDGVEVHNAKTKPREEQYNSTYRVVSVLTVLHQDWLNGKEYKCKVTNKALPAPIEKTISKAKGQPREPQVYTLPPSRDELTKNQVSLTCLVKGFYPSDIAVEWESNGQPENNYKTTPPVLDSDGSFFLYSKLTVDKSRWQQGNVFSCSVMHEALHNHYTQKSLSLSPGKERKCCVECPPCP
notes: G045c background, E233P/S267E/H268F/S324T; leader 1-20 cleaved
For the molecule B2, the binding result with FcγRIIb [4], with FcγRI [5] and with C1q [6] was “binds” in each case.

B3: G1116 (Fc fusion)
chain: EPKSCDKTHTCPPCPAPPLLHGPSVFLFPPKPKDTLMISRTPEVTCVVVDVKFEDPEVKFNWYVDGVEVHNAKTKPREEQYNSTYRVVSVLTVLHQDWLNGKEYKCKVTNKALPAPIEKTISKAKGQPREPQVYTLPPSRDELTKNQVSLTCLVKGFYPSDIAVEWESNGQPENNYKTTPPVLDSDGSFFLYSKLTVDKSRWQQGNVFSCSVMHEALHNHYTQKSLSLSPGKERKCCVECPPCP
notes: G045c background, E233P/G236H/S267K/H268F/S324T; leader 1-20 cleaved
Turning to B3, the binding result with FcγRI [5] and with C1q [6] was “binds” in each case.

B4: G1132 (Fc fusion)
chain: EPKSCDKTHTCPPCPAPELLGGPSVFLFPPKPKDTLMISRTPEVTCVVVDVRFEDPEVKFNWYVDGVEVHNAKTKPREEQYASTYRVVSVLTVLHQDWLNGKEYKCKVTNKALPAPIEKTISKAKGQPREPQVYTLPPSRDELTKNQVSLTCLVKGFYPSDIAVEWESNGQPENNYKTTPPVLDSDGSFFLYSKLTVDKSRWQQGNVFSCSVMHEALHNHYTQKSLSLSPGKERKCCVECPPCP
notes: G045c background, S267R/H268F/S324T/N297A; leader 1-20 cleaved
As to B4, the binding result with FcγRI [5] and with C1q [6] was “binds” in each case.

B5: G1071d2 (Fc fusion)
chain: EPKSCDKTHTCPPCPAPELLGGPSVFLFPPKPKDTLMISRTPEVTCVVVDVSFEDPEVKFNWYVDGVEVHNAKTKPREEQYNSAYRVVSVLTVLHQDWLNGKEYKCKVTNKALPAPIEKTISKAKGQPREPQVYTLPPSRDELTKNQVSLTCLVKGFYPSDIAVEWESNGQPENNYKTTPPVLDSDGSFFLYSKLTVDKSRWQQGNVFSCSVMHEALHNHYTQKSLSLSPGKERKCCVECPPCP
notes: G045c background, H268F/S324T/T299A; leader 1-20 cleaved
For B5, the binding result with FcγRIIb [4], with FcγRI [5] and in the assay with C1q [6] was “binds” throughout.

B6: G1096 (Fc fusion)
chain: EPKSCDKTHTCPPCPAPELLGGPSVFLFPPKPKDTLMISRTPEVTCVVVDVRFEDPEVKFNWYVDGVEVHNAKTKPREEQYNSAYRVVSVLTVLHQDWLNGKEYKCKVTNKALPAPIEKTISKAKGQPREPQVYTLPPSRDELTKNQVSLTCLVKGFYPSDIAVEWESNGQPENNYKTTPPVLDSDGSFFLYSKLTVDKSRWQQGNVFSCSVMHEALHNHYTQKSLSLSPGKERKCCVECPPCP
notes: G045c background, S267R/H268F/S324T/T299A; leader 1-20 cleaved
B6: the binding result in the assay with FcγRI [5] and in the assay with C1q [6] was “binds” each time.

B7: G1084 (Fc fusion)
chain: EPKSCDKTHTCPPCPAPPLLGGPSVFLFPPKPKDTLMISRTPEVTCVVVDVKFEDPEVKFNWYVDGVEVHNAKTKPREEQYNSTYRVVSVLTVLHQDWLNGKEYKCKVTNKALPAPIEKTISKAKGQPREPQVYTLPPSRDELTKNQVSLTCLVKGFYPSDIAVEWESNGQPENNYKTTPPVLDSDGSFFLYSKLTVDKSRWQQGNVFSCSVMHEALHNHYTQKSLSLSPGKERKCCVECPPCP
notes: G045c background, E233P/S267K/H268F/S324T; leader 1-20 cleaved
B7: the binding result with FcγRI [5] and with C1q [6] was “binds” each time.

B8: G1119 (Fc fusion)
chain: EPKSCDKTHTCPPCPAPPLLRGPSVFLFPPKPKDTLMISRTPEVTCVVVDVKFEDPEVKFNWYVDGVEVHNAKTKPREEQYNSTYRVVSVLTVLHQDWLNGKEYKCKVTNKALPAPIEKTISKAKGQPREPQVYTLPPSRDELTKNQVSLTCLVKGFYPSDIAVEWESNGQPENNYKTTPPVLDSDGSFFLYSKLTVDKSRWQQGNVFSCSVMHEALHNHYTQKSLSLSPGKERKCCVECPPCP
notes: G045c background, E233P/G236R/S267K/H268F/S324T; leader 1-20 cleaved
For the molecule B8, the binding result in the assay with FcγRI [5] and in the assay with C1q [6] was “binds” in each case.

B9: G1100 (Fc fusion)
chain: EPKSCDKTHTCPPCPAPPLLGGPSVFLFPPKPKDTLMISRTPEVTCVVVDVRFEDPEVKFNWYVDGVEVHNAKTKPREEQYNSTYRVVSVLTVLHQDWLNGKEYKCKVTNKALPAPIEKTISKAKGQPREPQVYTLPPSRDELTKNQVSLTCLVKGFYPSDIAVEWESNGQPENNYKTTPPVLDSDGSFFLYSKLTVDKSRWQQGNVFSCSVMHEALHNHYTQKSLSLSPGKERKCCVECPPCP
notes: G045c background, E233P/S267R/H268F/S324T; leader 1-20 cleaved
As for B9, the binding result with FcγRI [5] and in the assay with C1q [6] was “binds” in each case.

B10: G1123 (Fc fusion)
chain: EPKSCDKTHTCPPCPAPPLLQGPSVFLFPPKPKDTLMISRTPEVTCVVVDVRFEDPEVKFNWYVDGVEVHNAKTKPREEQYNSTYRVVSVLTVLHQDWLNGKEYKCKVTNKALPAPIEKTISKAKGQPREPQVYTLPPSRDELTKNQVSLTCLVKGFYPSDIAVEWESNGQPENNYKTTPPVLDSDGSFFLYSKLTVDKSRWQQGNVFSCSVMHEALHNHYTQKSLSLSPGKERKCCVECPPCP
notes: G045c background, E233P/G236Q/S267R/H268F/S324T; leader 1-20 cleaved
With B10, the binding result in the assay with FcγRI [5] and with C1q [6] was “binds” each time.

B11: G1112 (Fc fusion)
chain: EPKSCDKTHTCPPCPAPPLLRGPSVFLFPPKPKDTLMISRTPEVTCVVVDVRFEDPEVKFNWYVDGVEVHNAKTKPREEQYNSTYRVVSVLTVLHQDWLNGKEYKCKVTNKALPAPIEKTISKAKGQPREPQVYTLPPSRDELTKNQVSLTCLVKGFYPSDIAVEWESNGQPENNYKTTPPVLDSDGSFFLYSKLTVDKSRWQQGNVFSCSVMHEALHNHYTQKSLSLSPGKERKCCVECPPCP
notes: G045c background, E233P/G236R/S267R/H268F/S324T; leader 1-20 cleaved
For B11, the binding result with FcγRI [5] and in the assay with C1q [6] was “binds” in each case.

B12: G1093 (Fc fusion)
chain: EPKSCDKTHTCPPCPAPELLGGPSVFLFPPKPKDTLMISRTPEVTCVVVDVKFEDPEVKFNWYVDGVEVHNAKTKPREEQYNSAYRVVSVLTVLHQDWLNGKEYKCKVTNKALPAPIEKTISKAKGQPREPQVYTLPPSRDELTKNQVSLTCLVKGFYPSDIAVEWESNGQPENNYKTTPPVLDSDGSFFLYSKLTVDKSRWQQGNVFSCSVMHEALHNHYTQKSLSLSPGKERKCCVECPPCP
notes: G045c background, S267K/H268F/S324T/T299A; leader 1-20 cleaved
In the case of B12, the binding result in the assay with FcγRI [5] and in the assay with C1q [6] was “binds” each time.

B13: G1070 (Fc fusion)
chain: EPKSCDKTHTCPPCPAPELLGGPSVFLFPPKPKDTLMISRTPEVTCVVVDVKFEDPEVKFNWYVDGVEVHNAKTKPREEQYASTYRVVSVLTVLHQDWLNGKEYKCKVTNKALPAPIEKTISKAKGQPREPQVYTLPPSRDELTKNQVSLTCLVKGFYPSDIAVEWESNGQPENNYKTTPPVLDSDGSFFLYSKLTVDKSRWQQGNVFSCSVMHEALHNHYTQKSLSLSPGKERKCCVECPPCP
notes: G045c background, S267K/H268F/S324T/N297A; leader 1-20 cleaved
For the molecule B13, the binding result in the assay with FcγRI [5] and with C1q [6] was “binds” throughout.

B14: G1046 (Fc fusion)
chain: EPKSCDKTHTCPPCPAPELLGGDSVFLFPPKPKDTLMISRTPEVTCVVVWVEFEDPEVKFNWYVDGVEVHNAKTKPREEQYNSTYRVVSVLTVLHQDWLNGKEYKCKVTNKALPAPIEKTISKAKGQPREPQVYTLPPSREEMTKNQVSLTCLVKGFYPSDIAVEWESNGQPENNYKTTPPVLDSDGSFFLYSKLTVDKSRWQQGNVFSCSVMHEALHNHYTQKSLSLSPGKERKCCVECPPCP
notes: G045c background, P238D/D265W/S267E/H268F/S324T; leader 1-20 cleaved
For B14, the binding result in the assay with FcγRI [2] is recorded as “binds”; in the assay with C1q [3] it was “binds”; with FcγRIIIa, “no binding”.
